The test deals with human Hsp60 G190W mutant (human) (UniProt P10809). The test can be described thus: SEC; Superdex 200 Increase 10/300 GL, 50 mM Tris-HCl (pH 7.8 at 25 °C), 2 mM DTT, 2 mM EDTA, 0.5 mg sample, 0.75 mL/min; size from calibration with molecular weight standards; before and after agitation.

These results are taken from publication PMC6982183.

With “human Hsp60 G190W mutant (from UniProt P10809 53-573) (natural protein)”, the stoichiometry N was determined as 14.
